Four molecules from patent US6025158A, “Nucleic acids encoding humanized anti-IL-8 monoclonal antibodies” (Genentech, Inc., dated 2000) can be followed below.

The IC50 is the concentration needed to halve the response being measured. By Kd is commonly meant the equilibrium constant for the complex coming apart.

Like-named read-outs stand apart in the source and are kept apart here.

A short description of series [1]: isoelectric focusing (IEF). Format: physicochemical. The conditions noted are these: IEF pH 3-9. The method, then: The isoelectric focusing (IEF) pattern of each mAb was determined by applying purified antibodies on an IEF polyacrylamide gel (pH 3-9, Pharmacia) using the Fast gel system (Pharmacia, Piscataway, N.J.). The IEF gel was pretreated with pharmalyte containing 1% Triton X100 (Sigma, St. Louis, Mo.) for 10 min before loading the samples. The IEF pattern was visualized by silver staining according to the instructions from the manufacturer. All of the monoclonal antibodies had different IEF patterns, confirming that they originated from different clones.

Series [2] concerns the target T1, IL-8 binding to human neutrophils (Homo sapiens, UniProt P10145).
T1 construct: is intended to mean (ser-IL-8)72 unless otherwise specified; ubiquitin (production fusion); made in house
The series can be described thus: receptor binding assay: 125I-IL-8 bound to human neutrophils in presence of mAbs. To be noted: 1:25 molar ratio of IL-8 to mAb. The protocol: Neutrophils were prepared by using Mono-Poly Resolving Medium (M-PRM) (Flow Lab. Inc., McLean, Va.). Briefly fresh, heparinized human blood was loaded onto M-PRM at a ratio of blood to medium, 3.5:3.0, and centrifuged at 300×g for 30 min at room temperature. Neutrophils enriched at the middle layer were collected and washed once in PBS. […] The receptor binding assay was done as follows. […] The mixture was then incubated with 100 μl of neutrophils (10^7 cells/ml) for 15 min at 37° C. […] The supernatant was removed by aspiration and the radioactivity associated with the pellet was counted in a gamma counter.

The subject of series [3] is IL-8 induced human neutrophil chemotaxis. The series can be described thus: neutrophil chemotaxis induced by IL-8, Boyden chamber method. Format: cell-based. To be noted: 1:10 ratio of IL-8 to mAb. The method, then: The ability of the anti-IL-8 antibodies to block neutrophil chemotaxis induced by IL-8 was tested as follows. Neutrophil chemotaxis induced by IL-8 was determined using a Boyden chamber method (Larsen, et al. Science 243:1464 (1989)). One hundred μl of human neutrophils (10^6 cells/ml) resuspended in RPMI containing 0.1% BSA were placed in the upper chamber and 29 μl of the IL-8 (20 nM) with or without monoclonal antibodies were placed in the lower chamber. Cells were incubated for 1 hr at 37° C. Neutrophils migrated into the lower chamber were stained with Wright's Giemsa stain and counted under the microscope (100×magnification). Approximately 10 different fields per experimental group were examined. Neutralizing monoclonal antibodies 5.12.14 and 4.1.3 blocked almost 70% of the neutrophil chemotactic activity of IL-8 at 1:10 ratio of IL-8 to mAb.

For series [4], the system named is human IL-8 mediated elastase release from human neutrophils. The series can be described thus: IL-8 mediated release of elastase by neutrophils (mAb). The series is classed as cell-based. The conditions noted are these: 1:1 ratio of IL-8 to mAb. The method, then: One of the antibodies, mAb 5.12.14, was further studied to determine whether it could block the IL-8 mediated release of elastase by neutrophils. Briefly, human neutrophils were resuspended in Hanks balanced salt solution (Gibco, Grand Island, N.Y.) containing 1.0% BSA, Fraction V (Sigma, St. Louis, Mo.), 2 mg/ml alpha-D-glucose (Sigma), 4.2 mM sodium bicarbonate (Sigma) and 0.01 M HEPES, pH 7.1 (JRH Bioscience, Lenexa, Kans.). A stock of cytochalasin B (Sigma) was prepared (5 mg/ml in dimethylsulfoxide (Sigma) and stored at 2-8° C. Cytochalasin B was added to the neutrophil preparation to produce a final concentration of 5 μg/ml, and incubated for 15 min at 37° C. Human IL-8 was incubated with mAb 5.12.14 (20 μl), or a negative control antibody, in 1 ml polypropylene tubes (DBM Scientific, San Fernando, Calif.) for 30 min at 37° C. The final assay concentrations of IL-8 were 50 and 500 nM. The monoclonal antibodies were diluted to produce the following ratios (IL-8:Mab): 1:50, 1:10, 1:2, 1:1, and 1:0.25. Cytochalasin B-treated neutrophils were added (100 μl/tube) and incubated for 2 hours at 25° C. The tubes were centrifuged (210×g, 2-8° C.) for 10 min, and supernatants were transferred to 96 well tissue culture plates (30 μl/well). […] Absorbance was measured at 405 nm (SLT 340 ATTC plate reader, SLT Lab Instruments, Austria).

The target of series [5] is T2, IL-8 (Homo sapiens, UniProt P10145). The series can be described thus: radioimmune precipitation test (RIP), capture of soluble 125I-IL-8. The series is classed as binding. Further details: is intended to mean (ser-IL-8)72 unless otherwise specified; ubiquitin (production fusion); made in house. The method, then: One hundred microliters of a predetermined concentration of goat anti-mouse Ig antisera (Pel-Freez, Rogers, Ark.) were added and the mixture was incubated at room temperature for 1 hr. Immune complexes were precipitated by the addition of 0.5 ml of 6% polyethylene glycol (M.W. 8000) kept at 4° C. After centrifugation at 2,000×g for 20 min at 4° C., the supernatant was removed by aspiration and the radioactivity remaining in the pellet was counted in a gamma counter. Percent specific binding was calculated as (precipitated cpm-background cpm)/(total cpm-background cpm).

For series [6], the target named is T2, IL-8. The series can be described thus: competitive binding ELISA (epitope comparison of biotinylated and unlabeled mAbs). The arrangement: is intended to mean (ser-IL-8)72 unless otherwise specified; ubiquitin (production fusion); made in house. The conditions noted are these: biotinylated mAb to unlabeled mAb 1:100. The protocol:
To assess whether these monoclonal antibodies bound to the same epitopes, a competitive binding ELISA was performed. […] Thus, mAb 4.1.3 and mAb 5.2.3 bind to a different epitope(s) than the epitope recognized by monoclonal antibodies 12.3.9, 4.8 and 5.12.14.

Series [7] addresses T3, recombinant human IL-8, (ser-IL-8)72 (human, UniProt P10145). Kind of series: inhibition of 125I-IL-8 binding to human neutrophils.
The target in series [8] is T3, recombinant human IL-8, (ser-IL-8)72. The description is as above. This is another data set of the same source.
For series [9] the target is unchanged. Kind of series: 125I-IL-8 neutrophil competition; reference by Table 4: chimeric F(ab).
Series [10] concerns the target IL-8 binding to IL-8 receptors on human neutrophils (Homo sapiens, UniProt P10145). The series can be described thus: inhibition of 125I-IL-8 binding to human neutrophils (competition binding assay). To be noted: read-out: average IC50, inhibition of 125I-IL-8 binding to human neutrophils; characterization of 6G4V11N35A Fab and F(ab')2 (FIGS. 33, 38).
The test system of series [11] is neutrophils in bronchoalveolar lavage (BAL) fluid. The series can be described thus: neutrophils in bronchoalveolar lavage (BAL) fluid of animals infected with bacteria. Format: in vivo. The conditions noted are these: infected with Streptococcus pneumoniae, Escherichia coli, or Pseudomonas aeruginosa; versus isotype control mouse IgG. The source says:
FIG. 12 is a graph depicting the effect of anti-IL-8 monoclonal antibody treatment on the number of neutrophils in bronchoalveolar lavage (BAL) fluid in animals infected with Streptococcus pneumoniae, Escherichia coli, or Pseudomonas aeruginosa.

Series [12] deals with human monomeric IL-8 (human).
Series [13] deals with T3, recombinant human IL-8, (ser-IL-8)72.
Series [14] has the same target. This is another data set of the same source.
The next series has as its target T4, rabbit IL-8 (rabbit, UniProt P19874).
T4 sequence: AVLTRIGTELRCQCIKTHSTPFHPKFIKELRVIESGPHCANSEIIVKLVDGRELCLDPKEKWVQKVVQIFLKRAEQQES
The series can be described thus: cell-based or functional assay.

The target of series [15] is T3, recombinant human IL-8, (ser-IL-8)72. Kind of series: KinExA, equilibrium, human IL-8. The method, then:
The beads were resuspended in assay buffer (0.1% bovine serum albumin in PBS) to a final volume of 30 ml.
The equilibrium constant (Kd) was calculated using the software provided by Sapidyne Instruments Inc.
On the technique in general: In KinExA the mixture passes briefly over coated beads that capture the unbound partner.

B1: 5.12.14: murine anti-human IL-8 monoclonal antibody, IgG2a, hybridoma ATCC HB 11553 (antibody, V domains shown)
VL: KASQNVGTNVAWYQQKPGQSPKALIYSSSYRYSGVPDRFTGSGSGTDFTLTISHVQSEDLADYFCQQYNIYPLTFGPGTKLELKRADAAPPTVSIFPPFE
VH: ASGFIFSSYGMSWVRQTPGKSLELVATINNNGDSTYYPDSVKGRFTISRDNAKNTLYLQMSSLKSEDTAMFYCARALISSATWFGYWGQGTLVTVSAAKTTAPSVYP
With B1, the pI in series [1] is recorded as 6.2-7.4. For the same molecule, the “inhibition of binding of IL-8 to human neutrophils” value in series [2] is “greater than 85%”. Besides, the “block of neutrophil chemotactic activity of IL-8” value in series [3] is given as roughly 70%. Also, the “block of IL-8 mediated release of elastase from neutrophils” value in series [4] is “able to effectively block the release of elastase from neutrophils”. The “% Specific Binding to IL-8” value with IL-8 [5] (125I-IL-8, RIP) was determined as 98%. For the same molecule, the “ability to capture soluble 125I-IL-8” value with IL-8 [5] (RIP) is listed as “captured ^125 I-IL-8 very efficiently”. Also, the “inhibition of binding of biotinylated mAb (epitope)” value in the series with IL-8 [6] is given as “significantly inhibited by its homologous mAb but not by mAb 4.1.3”.

B2: humanized 6G425 F(ab)-1 (Fab, V domains shown)
VH: EVQLVESGGGLVQPGGSLRLSCAASGYSFSSHYMHWVRQAPGKGLEWVGYIDPSNGETTYNQKFKGRFTISRDNSKNTLYLQMNSLRAEDTAVYYCAARGDYRYNGDWFFDVWGQGT
VL: DIQMTQSPSSLSASVGDRVTITCRSSQSLVHGIGNTYLHWYQQKPGKAPKLLIYYKVSNRFSGVPSRFSGSGSGTDFTLTISSLQPEDFATYYCSQSTHVPLTFGQGTKVEIKR
As for B2, the IC50 in [7] amounted to 40 nM; in series [8], 63 nM. The “fold reduction in binding affinity” value in series [9] amounted to 5.5 fold.

B3: 6G4.2.5: murine anti-rabbit IL-8 monoclonal antibody, IgG2a, hybridoma ATCC HB 11722 (antibody, V domains shown)
VL: DIVMTQTPLSLPVSLGDQASISCRSSQSLVHGIGNTYLHWYLQKPGQSPKLLIYYKVSNRFSGVPDRFSDSGSGTDFTLRISRVEAEDLGLYFCSQSTHVPLTFGAGTKLELKR
VH: EIQLQQSGPELMKPGASVKISCKASGYSFSSHYMHWVKQSHGKSLEWIGYIDPSNGETTYNQKFKGKATLTVDTSSSTANVHLSSLTSDDSAVYFCAARGDYRYNGDWFFDVWGAGT
With B3, in series [10], the IC50 was found to be 5 nM. For the same molecule, the “number of neutrophils in BAL fluid” value in series [11] is “significantly reduced the number of neutrophils present in the BAL fluid”.

B4: 6G4V11N35A Fab (Fab, V domains shown)
VH: EVQLVQSGGGLVQPGGSLRLSCAASGYSFSSHYMHWVRQAPGKGLEWVGYIDPSNGETTYNQKFKGRFTLSRDNSKNTAYLQMNSLRAEDTAVYYCARGDYRYNGDWFFDVWGQGTLVTVSS
VL: DIQMTQSPSSLSASVGDRVTITCRSSQSLVHGIGATYLHWYQQKPGKAPKLLIYKVSNRFSGVPSRFSGSGSGTDFTLTISSLQPEDFATYYCSQSTHVPLTFGQGTKVEIKR
Regarding B4, the IC50, IL-8 mediated neutrophil chemotaxis was 1 nM in [12] and 5 nM with rabbit IL-8. Besides, the IC50, human IL-8 mediated neutrophil chemotaxis in series [13] worked out at 2.7 nM. For the same molecule, the IC50, IL-8 mediated PMN chemotaxis in series [14] stood at 0.8 nM. In addition, the Kd in [15] was roughly 0.114 nM.
